Measurements from the supplement of paper PMC7125110.
± gives the standard error. This sample holds only a part of the variants without activity.

B1: glmS ribozyme (parent)
chain: AUAAAAGCGCCAGAACUACAGAAAUGUAGUUGACGAGGAGGAGGUUUAUCGAAUUUUCGGCGGAUGCCUCCAAA

Legend:
Conditions in all cases: with glucosamine-6-phosphate
[1] = variants of: B1; assay: self-cleavage kobs at 640 uM GlcN6P; higher = faster cleavage; RNA array
In short: (§1)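 Tiles bearing barcoded ribozyme variants, transcribed in situ by E. coli RNA polymerase on sequenced MiSeq chips, were imaged over ~14 h at 37 °C using a hybridised Cy3 probe. Glucosamine-6-phosphate was supplied at 40 μM to 10 mM in HEPES/KCl/Mg(OAc)2 buffer. kobs came from one- or two-exponential decay fits to normalised per-tile medians, and weighted Michaelis–Menten fits then provided kcat and KM.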

[2] = variants of: B1; assay: self-cleavage kobs at 2500 uM GlcN6P; higher = faster cleavage; RNA array
In short: as §1

[3] = variants of: B1; assay: self-cleavage kobs at 10000 uM GlcN6P; higher = faster cleavage; RNA array
In short: as §1

## G7A G44C C50U
[1]
  self-cleavage kobs at 640 uM GlcN6P: < 1e-05 s⁻¹
[2]
  self-cleavage kobs at 2500 uM GlcN6P: < 1e-05 s⁻¹

## U49C U54A G63U
[1]
  self-cleavage kobs at 640 uM GlcN6P: < 1e-05 s⁻¹
[2]
  self-cleavage kobs at 2500 uM GlcN6P: < 1e-05 s⁻¹

## G35U A39U U45G U46C
[1]
  self-cleavage kobs at 640 uM GlcN6P: < 1e-05 s⁻¹
[2]
  self-cleavage kobs at 2500 uM GlcN6P: < 1e-05 s⁻¹

## C11G C34U U69G
[1]
  self-cleavage kobs at 640 uM GlcN6P: 0.000508 ± 0.00017 s⁻¹

## G37U A64U
[1]
  self-cleavage kobs at 640 uM GlcN6P: < 1e-05 s⁻¹
[2]
  self-cleavage kobs at 2500 uM GlcN6P: < 1e-05 s⁻¹

## G13C A14C G32U U69C
[1]
  self-cleavage kobs at 640 uM GlcN6P: 8.31e-05 ± 2.1e-05 s⁻¹
[2]
  self-cleavage kobs at 2500 uM GlcN6P: 7.03e-05 ± 2e-05 s⁻¹

## C10A C67U C68U
[1]
  self-cleavage kobs at 640 uM GlcN6P: 0.000489 ± 0.00014 s⁻¹

## G38U G41A U46G U49G
[1]
  self-cleavage kobs at 640 uM GlcN6P: < 1e-05 s⁻¹
[3]
  self-cleavage kobs at 10000 uM GlcN6P: < 1e-05 s⁻¹

## A6G A14C C16G G40C
[1]
  self-cleavage kobs at 640 uM GlcN6P: < 1e-05 s⁻¹
[2]
  self-cleavage kobs at 2500 uM GlcN6P: < 1e-05 s⁻¹

## A33C G44U C71A
[1]
  self-cleavage kobs at 640 uM GlcN6P: < 1e-05 s⁻¹
[2]
  self-cleavage kobs at 2500 uM GlcN6P: < 1e-05 s⁻¹

## G32U A52U C58U
[1]
  self-cleavage kobs at 640 uM GlcN6P: < 1e-05 s⁻¹
[2]
  self-cleavage kobs at 2500 uM GlcN6P: < 1e-05 s⁻¹

## A6C G13C G51U
[1]
  self-cleavage kobs at 640 uM GlcN6P: < 1e-05 s⁻¹

## C11A U31G G35C
[1]
  self-cleavage kobs at 640 uM GlcN6P: < 1e-05 s⁻¹
[2]
  self-cleavage kobs at 2500 uM GlcN6P: < 1e-05 s⁻¹

## G9U U54G C68U
[1]
  self-cleavage kobs at 640 uM GlcN6P: < 1e-05 s⁻¹

## G44A U55A G59U
[1]
  self-cleavage kobs at 640 uM GlcN6P: < 1e-05 s⁻¹
[2]
  self-cleavage kobs at 2500 uM GlcN6P: < 1e-05 s⁻¹

## A52C G62A G63C
[1]
  self-cleavage kobs at 640 uM GlcN6P: < 1e-05 s⁻¹

## A14U U65A C70U
[1]
  self-cleavage kobs at 640 uM GlcN6P: 0.000274 ± 4.7e-05 s⁻¹
[2]
  self-cleavage kobs at 2500 uM GlcN6P: 0.000248 ± 9.4e-05 s⁻¹
[3]
  self-cleavage kobs at 10000 uM GlcN6P: 0.000945 ± 0.0002 s⁻¹

## U2C G35U C68U
[1]
  self-cleavage kobs at 640 uM GlcN6P: < 1e-05 s⁻¹

## C34G G35C G60C C68G
[1]
  self-cleavage kobs at 640 uM GlcN6P: 6.81e-05 ± 3.1e-05 s⁻¹

## G9U G32C A33G A39G A48U C61U G63U A64U
[1]
  self-cleavage kobs at 640 uM GlcN6P: < 1e-05 s⁻¹
[2]
  self-cleavage kobs at 2500 uM GlcN6P: < 1e-05 s⁻¹

## G51C U56A
[1]
  self-cleavage kobs at 640 uM GlcN6P: < 1e-05 s⁻¹
[3]
  self-cleavage kobs at 10000 uM GlcN6P: < 1e-05 s⁻¹

## G7U C10U A52U
[1]
  self-cleavage kobs at 640 uM GlcN6P: < 1e-05 s⁻¹

## C34A C67A C71U
[1]
  self-cleavage kobs at 640 uM GlcN6P: < 1e-05 s⁻¹

## C11G U45G C71U
[1]
  self-cleavage kobs at 640 uM GlcN6P: < 1e-05 s⁻¹
[2]
  self-cleavage kobs at 2500 uM GlcN6P: < 1e-05 s⁻¹

## A6G A15C G32U
[1]
  self-cleavage kobs at 640 uM GlcN6P: < 1e-05 s⁻¹

## G7C G40U
[1]
  self-cleavage kobs at 640 uM GlcN6P: < 1e-05 s⁻¹
[2]
  self-cleavage kobs at 2500 uM GlcN6P: < 1e-05 s⁻¹
[3]
  self-cleavage kobs at 10000 uM GlcN6P: < 1e-05 s⁻¹

## C10U A53U C67A C68G
[1]
  self-cleavage kobs at 640 uM GlcN6P: 4.13e-05 ± 1.9e-05 s⁻¹

## U30C G44U
[1]
  self-cleavage kobs at 640 uM GlcN6P: < 1e-05 s⁻¹
[2]
  self-cleavage kobs at 2500 uM GlcN6P: < 1e-05 s⁻¹
[3]
  self-cleavage kobs at 10000 uM GlcN6P: < 1e-05 s⁻¹

## G60C C70A
[1]
  self-cleavage kobs at 640 uM GlcN6P: < 1e-05 s⁻¹
[3]
  self-cleavage kobs at 10000 uM GlcN6P: < 1e-05 s⁻¹

## G41U G59U G63U
[1]
  self-cleavage kobs at 640 uM GlcN6P: < 1e-05 s⁻¹

## U30A G51C
[1]
  self-cleavage kobs at 640 uM GlcN6P: < 1e-05 s⁻¹
[3]
  self-cleavage kobs at 10000 uM GlcN6P: < 1e-05 s⁻¹

## C16U U46C A53U
[1]
  self-cleavage kobs at 640 uM GlcN6P: 0.000328 ± 7.3e-05 s⁻¹
[2]
  self-cleavage kobs at 2500 uM GlcN6P: 0.00078 ± 0.00025 s⁻¹

## G7C A14C G44A G63A
[1]
  self-cleavage kobs at 640 uM GlcN6P: < 1e-05 s⁻¹
[2]
  self-cleavage kobs at 2500 uM GlcN6P: < 1e-05 s⁻¹

## G32C U45G G60A C68G
[1]
  self-cleavage kobs at 640 uM GlcN6P: < 1e-05 s⁻¹
[2]
  self-cleavage kobs at 2500 uM GlcN6P: < 1e-05 s⁻¹

## A36C G41A U45G A52U
[1]
  self-cleavage kobs at 640 uM GlcN6P: < 1e-05 s⁻¹

## C11A U30G U65C
[1]
  self-cleavage kobs at 640 uM GlcN6P: < 1e-05 s⁻¹
[2]
  self-cleavage kobs at 2500 uM GlcN6P: < 1e-05 s⁻¹

## C50A C67U C70G
[1]
  self-cleavage kobs at 640 uM GlcN6P: 6.04e-05 ± 2.3e-05 s⁻¹

## C8G G9C A39C
[1]
  self-cleavage kobs at 640 uM GlcN6P: < 1e-05 s⁻¹
[2]
  self-cleavage kobs at 2500 uM GlcN6P: < 1e-05 s⁻¹

## A12G A36C U45C G60U
[1]
  self-cleavage kobs at 640 uM GlcN6P: < 1e-05 s⁻¹

## C8G G43A U46G
[1]
  self-cleavage kobs at 640 uM GlcN6P: < 1e-05 s⁻¹
[3]
  self-cleavage kobs at 10000 uM GlcN6P: < 1e-05 s⁻¹

## A39U U55C U65G
[1]
  self-cleavage kobs at 640 uM GlcN6P: 0.000491 ± 0.00014 s⁻¹
[2]
  self-cleavage kobs at 2500 uM GlcN6P: 0.00164 ± 0.00045 s⁻¹

## A15U U45A A53C
[1]
  self-cleavage kobs at 640 uM GlcN6P: 0.000941 ± 0.00022 s⁻¹

## G43C A52C C68A
[1]
  self-cleavage kobs at 640 uM GlcN6P: < 1e-05 s⁻¹

## G40U U45C
[1]
  self-cleavage kobs at 640 uM GlcN6P: 0.000101 ± 2.7e-05 s⁻¹
[2]
  self-cleavage kobs at 2500 uM GlcN6P: 0.000729 ± 0.00014 s⁻¹
[3]
  self-cleavage kobs at 10000 uM GlcN6P: 0.000329 ± 7e-05 s⁻¹

## G32C G35U A36C C68A
[1]
  self-cleavage kobs at 640 uM GlcN6P: < 1e-05 s⁻¹
[2]
  self-cleavage kobs at 2500 uM GlcN6P: < 1e-05 s⁻¹

## A14U A15G C16A A52U A53U
[1]
  self-cleavage kobs at 640 uM GlcN6P: < 1e-05 s⁻¹

## C8U U30G U55C
[1]
  self-cleavage kobs at 640 uM GlcN6P: < 1e-05 s⁻¹
[2]
  self-cleavage kobs at 2500 uM GlcN6P: < 1e-05 s⁻¹

## U46A A53G U65G
[1]
  self-cleavage kobs at 640 uM GlcN6P: 0.000479 ± 0.00011 s⁻¹

## C11G C16G G38A G63A
[1]
  self-cleavage kobs at 640 uM GlcN6P: < 1e-05 s⁻¹

## G37U G62U
[1]
  self-cleavage kobs at 640 uM GlcN6P: < 1e-05 s⁻¹

## C11A G38U U47A
[1]
  self-cleavage kobs at 640 uM GlcN6P: < 1e-05 s⁻¹

## A6G G51A G59U G60A
[1]
  self-cleavage kobs at 640 uM GlcN6P: < 1e-05 s⁻¹
[2]
  self-cleavage kobs at 2500 uM GlcN6P: < 1e-05 s⁻¹

## U49C U55C
[1]
  self-cleavage kobs at 640 uM GlcN6P: < 1e-05 s⁻¹
[2]
  self-cleavage kobs at 2500 uM GlcN6P: < 1e-05 s⁻¹

## A14C C34G A64G
[1]
  self-cleavage kobs at 640 uM GlcN6P: < 1e-05 s⁻¹
[2]
  self-cleavage kobs at 2500 uM GlcN6P: < 1e-05 s⁻¹

## A15U G40U U55A U56A
[1]
  self-cleavage kobs at 640 uM GlcN6P: 5.38e-05 ± 1.6e-05 s⁻¹

## U30C G38U U57C A64G
[1]
  self-cleavage kobs at 640 uM GlcN6P: < 1e-05 s⁻¹

## G29U C34U G40U A42C U55A G66U
[1]
  self-cleavage kobs at 640 uM GlcN6P: < 1e-05 s⁻¹
[2]
  self-cleavage kobs at 2500 uM GlcN6P: < 1e-05 s⁻¹

## C8U U56G G63A
[1]
  self-cleavage kobs at 640 uM GlcN6P: < 1e-05 s⁻¹

## A12G A48C A52U
[1]
  self-cleavage kobs at 640 uM GlcN6P: < 1e-05 s⁻¹
[2]
  self-cleavage kobs at 2500 uM GlcN6P: < 1e-05 s⁻¹

## A14C A53U C67U
[1]
  self-cleavage kobs at 640 uM GlcN6P: 0.000153 ± 4.6e-05 s⁻¹
[2]
  self-cleavage kobs at 2500 uM GlcN6P: 0.000626 ± 0.0002 s⁻¹

## U45G G60A C67G
[1]
  self-cleavage kobs at 640 uM GlcN6P: < 1e-05 s⁻¹
[2]
  self-cleavage kobs at 2500 uM GlcN6P: < 1e-05 s⁻¹

## C8G C58U
[1]
  self-cleavage kobs at 640 uM GlcN6P: < 1e-05 s⁻¹
[2]
  self-cleavage kobs at 2500 uM GlcN6P: < 1e-05 s⁻¹
[3]
  self-cleavage kobs at 10000 uM GlcN6P: < 1e-05 s⁻¹

## C16A G62U C71G
[1]
  self-cleavage kobs at 640 uM GlcN6P: < 1e-05 s⁻¹
[2]
  self-cleavage kobs at 2500 uM GlcN6P: < 1e-05 s⁻¹
